Data on five molecules can be found in patent publication US20020147170A1 (priority 2000, published 2002).

Test [1] deals with Asn150Ala mutant rat mu opioid receptor (rat) (UniProt P33535). Put plainly: cell-based or functional assay.
Test [2] deals with wild-type rat mu opioid receptor (rat). The test can be described thus: cell-based or functional assay.
The next test concerns mu opioid receptor. Put plainly: Luciferase activity on DAMGO titration (FIG. 15). The test is classed as cell-based, rat. The conditions noted are these: DAMGO titrated onto cells. On the procedure: Ligand (Damgo) was titrated onto the cells expressing either the mutant or the wild-type mu opioid receptor and the luciferase activity was measured to assess the sensitivity of the receptor to ligand stimulation.
It is important to note that the mu opioid receptor of the invention is also hypersensitive.

Test [3] has as its target T1, rat mu opioid receptor (Rattus norvegicus, UniProt P33535, N150A).
T1 construct: expressed in transfected cells; host or cells: HEK293 (stated for the SRE-Luc/Gq5i assay); receptor gene in pcDNA1
The test can be described thus: CRE-Luc luciferase reporter assay with forskolin stimulation. It counts as cell-based. The settings on record: CRE-Luc, 0.5 μM or 2 μM forskolin. The source says:
(§1) The response element employed in this assay was the cAMP-response element (CRE), which is sensitive to Gαi mediated reductions in intracellular levels of cAMP. Signaling through the rat mu opioid receptor via Gαi inhibits adenylate cyclase, causing a decrease in intracellular cellular cAMP. Therefore, an increase in rat mu opioid receptor signaling induces a decrease in CRE mediated reporter activity.
Mutation induced Gαi-mediated decreases in intracellular cAMP were, prior to the present invention, more often measured by 1) stimulating cells with forskolin, which causes receptor-independent activation of adenylate cyclase and generates an intracellular pool of cAMP; 2) stimulating the cells with ligand; and 3) measuring the ligand-induced, receptor-dependent Gαi-mediated decrease in the intracellular cAMP pool (e.g., using a radioimmunoassay (e.g., New England Nuclear, Boston, Mass.)). […] Specifically, cells transfected with a CRE-Luc reporter construct (Stratagene, La Jolla, Calif.) and an expression vector encoding either a wild-type or a mutant rat mu opioid receptor were stimulated with 0.5 μM or 2 μM forskolin to increase the intracellular pool of cAMP. The basal (and ligand-induced) level of receptor activity was then measured using a standard luciferase assay (see FIG. 4). Coexpression of the receptor of interest with a luciferase reporter gene construct allows one to measure light emission as a readout for basal signaling.
This decrease in activity indicates an increase in the basal level activity of the mutant rat mu opioid receptor, because activation of the rat mu opioid receptor induces a decrease in CRE-mediated reporter activity (FIG. 4, compare 0.5 μM wild-type vs. 0.5 μM mutant and 2 μM wild-type vs. 2 μM mutant).

The target in test [4] is T1, rat mu opioid receptor. The test can be described thus: SRE-Luc/Gq5i luciferase reporter assay in HEK293 cells. The conditions noted are these: see Example 1. It counts as cell-based. The source says: (§2) A positive assay for Gαi coupling (i.e., one that yields an increase in luciferase activity upon receptor activation, instead of a negative assay, one that yields a decrease in luciferase activity upon receptor activation), provides a detectable output signal and less interassay variation. It was hypothesized that Gαi coupling could be detected by altering the signaling pathway generated by Gαi coupled receptors. A chimeric G protein (Gqi5, Broach and Thorner, Nature 384 (Suppl.): 14-16 (1996)) that contains the entire Gαq protein having five C-terminal amino acids from Gαi attached to the C-terminus of Gαq has been generated. This chimeric G protein is recognized as Gαi by Gαi coupled receptors, but switches the receptor induced signaling from Gαi to Gαq. This allows Gαi receptor coupling to be detected using a positive assay by use of the Gαq responsive SMS-Luc or SRE-Luc construct (Stratagene, La Jolla, Calif.). SMS and SRE preferably respond to Gαq mediated inositol and calcium production. Moreover, detection can be carried out in the absence of forskolin pre-stimulation of cells.
(§3) Reagents & Solutions: The cell culture media used in the assays described below was Gibco BRL #12100-046. This media was made according to manufacturer's recipe, pH adjusted to 7.2, filtered (0.22 micron pore), and supplemented with 1% Pen/Strep (Gibco #15140-122; 100% penicillin G 10,000 units/ml, and streptomycin 10,000 μg/ml) and 10% fetal bovine serum. Cell culture media lacking 10% fetal bovine serum was also generated. DNA used in the transfection experiments was purified and quantitated by measuring the absorbance at OD260. A LucLite Luciferase Assay Kit (Packard) was used to quantitate luciferase activity. Transfections were carried out using LipofectAMINE Reagent (Gibco #18324-012).
(§4) The rat mu opioid receptor is a Gαi coupled receptor. Therefore we chose to use the Gq5i reporter system, described in detail above (Broach and Thorner, supra), which switches the signaling pathway from Gαi to Gαq for reliable positive readout. HEK293 cells were transfected with the reporter construct SRE-Luc, an expression vector containing nucleic acid encoding Gq5i (Broach and Thorner, supra), and an expression vector containing nucleic acid encoding either the wild-type or the Asn150Ala mutant rat mu opioid receptor. Basal and ligand-stimulated luciferase activity was measured. The ligand used in this assay was [D—Ala^2—MePhe^4, Gly-ol^5]enkephalin] (DAMGO). As a negative control, HEK293 cells were transfected with pcDNA1 (empty vector DNA), SRE-Luc, and the expression vector containing nucleic acid encoding Gq5i (Broach and Thorner, supra).
(§5) The luciferase assay was carried out as follows. On day 1, HEK293 cells in a T75 flask were washed with 15 ml serum-free media (or PBS), trypsinized with 5 ml 0.05% trypsin-EDTA (Gibco #25300-062), incubated at 37° C. for 3 minutes at which time 6-7 ml complete HEK293 media (Gibco #12100-046) and 10% Fetal Bovine Serum (Intergen #1050-90) were added. Thereafter, cells were collected in 50 ml centrifuge tubes, pelleted at 800-900 rpm (RCF˜275), and resuspend in 20 ml complete media. The cells were counted using a haemocytometer and diluted to 85,000 cells/ml in complete media. Using a repeat pipettor or cell plater, 100 μl of cells were added to each well of a Primaria 96-well plate (Falcon #353872). Cells were then incubated at 37° C., 5% CO2 until use at 48 hours.
(§6) On day 3, cells were transfected using LipofectAMINE™ according to the manufacturer's protocol (Gibco #18324-012, Rockville, Md.).
(§7) On day 4, cells were stimulated as follows. Ligands for the receptor, either DAMGO or a non-peptide ligand (e.g., naloxone or naltrexone), were diluted to a desired concentration in serum-free media containing 0.15 mM PMSF (or other protease inhibitor(s)). […]

In test [5] the test system is rat mu opioid receptor. Described as above. The test is classed as cell-based. The conditions noted are these: SRE + Gq5i.
Excerpt: as §2, §3, §4, §5, §6, §7

In test [6] the test system is CCK-BR. The conditions noted are these: COS-7 cells, absence of agonist; cited from earlier work.
Test [7] has as its target T2, CCK-BR (Homo sapiens, UniProt P32239, L325E).
T2 construct: expressed in transfected cells; host or cells: HEK293
T2 sequence (P32239 1-447 L325E): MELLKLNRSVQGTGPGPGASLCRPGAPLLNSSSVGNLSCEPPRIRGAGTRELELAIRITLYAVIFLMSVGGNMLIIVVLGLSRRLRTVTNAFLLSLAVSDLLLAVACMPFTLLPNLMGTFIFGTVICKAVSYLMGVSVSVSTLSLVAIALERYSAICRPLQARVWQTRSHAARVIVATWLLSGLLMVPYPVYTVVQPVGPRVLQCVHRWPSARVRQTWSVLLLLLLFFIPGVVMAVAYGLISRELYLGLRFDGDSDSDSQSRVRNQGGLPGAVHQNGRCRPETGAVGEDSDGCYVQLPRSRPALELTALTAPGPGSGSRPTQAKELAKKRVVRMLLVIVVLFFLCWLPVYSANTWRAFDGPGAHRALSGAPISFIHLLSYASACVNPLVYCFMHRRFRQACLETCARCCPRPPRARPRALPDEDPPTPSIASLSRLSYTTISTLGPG
Put plainly: Luciferase reporter assay (SMS-Luc, SRE-Luc) in HEK293 cells. It counts as cell-based.
Excerpt: as §1
HEK293 cells were transfected (as described above) with SMS-Luc and an expression vector encoding any one of pcDNA1, wild-type CCK-BR, or Leu325Glu CCK-BR.

The next test concerns PTH receptor. The conditions noted are these: COS-7 cells; cited from earlier work.

Numbering of substitutions follows the chain as printed.

In the case of “[D-Ala^2-MePhe^4, Gly-ol^5]enkephalin (peptide)”, the Average Ligand Stimulated Activity (Light Emission) (light emission) came out at 87000 in test [1] and 87500 in test [2].

B1: Asn150Ala rat mu opioid receptor: rat mu opioid receptor (SEQ ID NO: 1) with Asn to Ala point mutation at position 150, expressed from pcDNA1 (protein)
chain: MDSSTGPGNTSDCSDPLAQASCSPAPGSWLNLSHVDGNQSDPCGLNRTGLGGNDSLCPQTGSPSMVTAITIMALYSIVCVVGLFGNFLVMYVIVRYTKMKTATNIYIFNLALADALATSTLPFQSVNYLMGTWPFGTILCKIVISIDYYAMFTSIFTLCTMSVDRYIAVCHPVKALDFRTPRNAKIVNVCNWILSSAIGLPVMFMATTKYRQGSIDCTLTFSHPTWYWENLLKICVFIFAFIMPVLIITVCYGLMILRLKSVRMLSGSKEKDRNLRRITRMVLVVVAVFIVCWTPIHIYVIIKALITIPETTFQTVSWHFCIALGYTNSCLNPVLYAFLDENFKRCFREFCIPTSSTIEQQNSTRVRQNTREHPSTANTVDRTNHQLENLEAETAPLP
As for B1, the “sensitivity of the receptor to ligand stimulation vs wild-type” value in the test with mu opioid receptor (listed as Asn150Ala rat mutant mu opioid receptor) was “hypersensitivity”. For the same molecule, the “sensitivity of the receptor to ligand stimulation vs wild-type” value in the test with mu opioid receptor (listed as mutant receptor) was “responsive to a lower concentration of ligand than the wild-type receptor”. For the same molecule, in the test with rat mu opioid receptor [3], the “basal activity (forskolin-induced, no receptor stimulation) vs wild-type receptor” value was “reduction in basal activity” and the “level of constitutive activity relative to ligand-stimulated activity of the wild-type receptor” value came to 50%. The “basal activity relative to the maximal level of ligand-stimulated second messenger signaling” value in the test with rat mu opioid receptor [4] was “exceeded 50%”. In the test on rat mu opioid receptor [5] (HEK293 cells, ligand DAMGO), the “Average Ligand Stimulated Activity (Light Emission)” value is 86,996. Besides, in the test with rat mu opioid receptor [5] (HEK293 cells, no ligand), the “Average Basal Activity (Light Emission)” value is “*56,498”. For the same molecule, the “stimulation of basal level activity” value in the test on rat mu opioid receptor [5] (mutant vs wild-type receptor, listed as Asn150Ala mutant mu opioid receptor) is given as “approximately 6.5 fold”.

B2: Leu325Glu CCK-BR mutant: human CCK-BR with point mutation Leu325Glu in the third intracellular loop (protein, UniProt P32239 1-447, looked up, variant L325E)
Gastrin/cholecystokinin type …: T2 sequence (P32239 1-447 L325E)
With B2, in the test on CCK-BR [6], the “agonist-independent constitutive activity (inositol phosphate production)” value was “triggers constitutive production of inositol phosphates to levels exceeding wild-type CCK-BR”. Besides, the “basal activity detected by the SMS and SRE response elements” value with CCK-BR [7] (SMS and SRE response elements, Gαq coupled, FIG. 3) is on record as “increase in basal activity”. Besides, the “basal level activity vs wild-type CCK-BR” value with CCK-BR [7] (SMS-Luc, HEK293 cells) is recorded as “increased basal level activity”.

B3: His223Arg: polymorphic constitutively active PTH receptor mutant from Jansen's metaphyseal chondrodysplasia patients (protein, UniProt Q03431 27-593, looked up, variant H223R)
Parathyroid …: DADDVMTKEEQIFLLHRAQAQCEKRLKEVLQRPASIMESDKGWTSASTSGKPRKDKASGKLYPESEEDKEAPTGSRYRGRPCLPEWDHILCWPLGAPGEVVAVPCPDYIYDFNHKGHAYRRCDRNGSWELVPGHNRTWANYSECVKFLTNETREREVFDRLGMIYTVGYSVSLASLTVAVLILAYFRRLHCTRNYIRMHLFLSFMLRAVSIFVKDAVLYSGATLDEAERLTEEELRAIAQAPPPPATAAAGYAGCRVAVTFFLYFLATNYYWILVEGLYLHSLIFMAFFSEKKYLWGFTVFGWGLPAVFVAVWVSVRATLANTGCWDLSSGNKKWIIQVPILASIVLNFILFINIVRVLATKLRETNAGRCDTRQQYRKLLKSTLVLMPLFGVHYIVFMATPYTEVSGTLWQVQMHYEMLFNSFQGFFVAIIYCFCNGEVQAEIKKSWSRWTLALDFKRKARSGSSSYSYGPMVSHTSVTNVGPRVGLGLPLSPRLLPTATTNGHPQLPGHAKPGTPALETLETTPPAMAAPKDDGFLNGSCSGLDEEASGPERPPALLQEEWETVM
Take B3: the “basal cyclic AMP accumulation vs cells expressing wild-type receptors” value in the test on PTH receptor is “four to six times higher”.

B4: Thr410Pro: polymorphic constitutively active PTH receptor missense mutant (protein, UniProt Q03431 27-593, looked up, variant T410P)
Parathyroid …: B3 Parathyroid … with R197H, T384P
B4: the “basal cyclic AMP accumulation vs cells expressing wild-type receptors” value in the test with PTH receptor was “four to six times higher”.
